Experimental data reported in article PMC7615710.

What was measured:
PP1α (Homo sapiens) = PP1α (Homo sapiens) (UniProt P62136); conditions: cited from earlier work
[1] = biological target: Bin1 SH3 domain (513-593) (human) (UniProt O00499); assay: ITC; 450 or 300 uM NS5A PRR peptide (syringe) titrated to 30 uM ASPP CTD or SH3 domain (cell), 12 °C, 25 mM HEPES pH 7.5, 150 mM NaCl, 500 uM TCEP; 25 steps of 10 ul; AB hetero association model (SEDPHAT)
Bin1 SH3 domain (513-593) (human), sequence (O00499 513-593): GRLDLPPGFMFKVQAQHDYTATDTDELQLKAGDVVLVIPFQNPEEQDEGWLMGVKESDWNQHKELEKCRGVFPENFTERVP

PP1α (Homo sapiens), sequence (P62136 2-330): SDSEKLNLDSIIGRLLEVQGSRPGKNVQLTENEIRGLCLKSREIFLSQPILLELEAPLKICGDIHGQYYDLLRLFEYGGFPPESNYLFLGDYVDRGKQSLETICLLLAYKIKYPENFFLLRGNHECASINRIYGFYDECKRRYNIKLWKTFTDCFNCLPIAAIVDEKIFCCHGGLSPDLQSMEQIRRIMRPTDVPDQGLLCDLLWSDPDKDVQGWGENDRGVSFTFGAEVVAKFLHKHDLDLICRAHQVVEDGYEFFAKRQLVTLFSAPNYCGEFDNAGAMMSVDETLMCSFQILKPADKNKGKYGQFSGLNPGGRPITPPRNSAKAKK
ASPP2 SH3, sequence (Q13625 1054-1122): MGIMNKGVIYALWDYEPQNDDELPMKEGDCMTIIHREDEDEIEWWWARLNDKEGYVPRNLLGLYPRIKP

Substance	Kd (PP1α (Homo sapiens))	Kd [1]
ASPP2 SH3 (from UniProt Q13625)	140 nM	–
HCV [1a.1] NS5A PRR peptide (peptide; other documents disagree on this pair)	–	30.3 nM
